Experiment [1] has as its target recombinant Can f 4 (dog). Kind of experiment: experimental rCan f 4 ImmunoCAP.
Experiment [2] has as its target IgE of Bos d 23k-reactive serum B. As to the kind of experiment: ImmunoCAP IgE inhibition; serum preincubated with 100 µg/mL rCan f 4, Bos d 23k immobilized.
Experiment [3] deals with IgE of Bos d 23k-reactive serum C. The experiment is described as above.
The target in experiment [4] is IgE of Bos d 23k-reactive serum A. The experiment is described as above.

myeloma IgE (antibody): the allergen specific IgE antibody in experiment [1] is 0.023 kUA/L.

B1: recombinant Can f 4 (protein, not shown: small tags and cut ends)
chain: QLPLPNVLTQVSGPWKTLYISSNNLDKIGDNGPFRIYMRGINVDIPRLKMSFNFYVKVDGECVENSVGASIGRDNLIKGEYNGGNYFRIIDMTPNALIGYDVNVDSKGKITKVALLMGRGAHVNEEDIAKFKKLSREKGIPEENIIYLGDTDNCPNHE
modifications: N-terminal Met; C-terminal His6 tag
For the molecule B1, the percent inhibition of IgE binding to Bos d 23k in experiment [2], in experiment [3] and in experiment [4] was more than 96% throughout.

The record behind these values is patent US20120076826A1.
